± gives the standard deviation.
Experiment: protein stability index of a GFP-peptide fusion (GPS, HEK-293T) (PSI 1-6); higher = more stable
Conditions: c terminus: a fixed tail appended
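Also: 24-mer peptide tiles fused after GFP, lentivirally expressed, FACS-sorted into six equal bins by GFP/DsRed ratio, decoded by Illumina sequencing, PSI is the read-weighted mean bin number.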

| Sequence | protein stability index (treatment: DMSO) | protein stability index (treatment: MLN4924 1 uM, 8 h) |
| --- | --- | --- |
| FLPGGDMMTLLMKKDTLTEEETQF [STK38L] | 2.89 ± 0.6 | 3.44 ± 0.51 |
| MVHKRSHTGERPFQCNQCGASFTQ [IKZF1] | 2.86 ± 0.25 | 2.97 ± 0.43 |
| KLWDPVDGSVVRDFEHRPKAPVVE [WDR88] | 4.08 ± 0.23 | 4.23 ± 0.2 |
| VTLIVDNTRFVVDPSIFTAQPNTM [BTBD10] | 2.84 ± 0.51 | 3.2 ± 0.74 |
| VFIIRKSLLDELMEVQHFRTIYHM [SOAT2] | 2.85 ± 0.61 | 2.58 ± 0.46 |
| QSEESDQGKYECVATNSAGTRYSA [PTPRD] | 5.23 ± 0.33 | 5.23 ± 0.34 |
| RAWIPSENIQDITVNIHRLHVKRS [ZMYND11] | 2.55 ± 0.31 | 2.49 ± 0.16 |
| LELGHWLYQTELVENECYQVFLDR [TOR1AIP2] | 2.38 ± 0.038 | 2.26 ± 0.32 |
| HDAQVRLYKEELEQTYHAKLENAR [LMNB1] | 3.99 ± 0.34 | 4.13 ± 0.14 |
| GCTGDEAESRGHSKGWGRNYASII [MYCL] | 3.1 ± 0.13 | 3.2 ± 0.17 |
| TSFPGRGSIPEFFHIMKRKFTNKE [AASDHPPT] | 3.179 ± 0.024 | 3.21 ± 0.72 |
| RLEREERNQTQVLRQQQDEAYLAS [FAF2] | 4.96 ± 0.21 | 5 ± 0.15 |
| KAELGALPHDFIDSLEKTDDDKYK [NLN] | 5.31 ± 0.2 | 5.2 ± 0.32 |
| FRVFHCTQYVRHSSDPFYTPEPDT [TPH1] | 2.15 ± 0.19 | 2.27 ± 0.35 |
| YLTIILILISFTCRFLLNSRVTDA [TMEM120A] | 3.19 ± 0.26 | 3.12 ± 0.24 |
| YQGLPVRCVKSIIRQVLQGLDYLH [SRPK2] | 2.45 ± 0.27 | 2.59 ± 0.41 |
| SRPSAPFTEASMMMSLTKLADKEL [ESR2] | 3.97 ± 0.4 | 3.97 ± 0.068 |
| AFTMAENLANCERLIEVEDMMVMG [SMTNL2] | 2.58 ± 0.35 | 3.24 ± 0.34 |
| STLLGEMDLLTQSLGVDTLPPPDP [APBB1IP] | 3.79 ± 0.42 | 4.03 ± 0.41 |
| QGHPPSLFPPKAKSNQPKSLEDLI [ATE1] | 4.25 ± 0.081 | 4.19 ± 0.16 |
| MALPGARARGWAAAARAAQRRRRV [RSAD1] | 4.64 ± 0.15 | 4.61 ± 0.17 |
| MAVDKDTTNVGRYPVGRFPSLHVV [FEM1A] | 2.67 ± 0.3 | 2.72 ± 0.34 |
| PEVVQHEEFILLSQGEVEKLIKCD [KLHL12] | 3.99 ± 0.4 | 3.86 ± 0.75 |

| Sequence | protein stability index (treatment: DMSO) | protein stability index (treatment: MLN4924 1 uM, 8 h) |
| --- | --- | --- |
| QYRWDMMHRLGEPQARMREENMER [BEX1] | 4.1 ± 0.37 | 4.23 ± 0.16 |
| AFPKMALQAKQDGKKDVSHSSPVD [LCOR] | 5.26 ± 0.14 | 5.16 ± 0.16 |
| PSGSLENGTKADGKDAKTTNGHGG [TRIM29] | 5.26 ± 0.45 | 5.58 ± 0.35 |
| WDLRDQSVVRDLKGYPDGVKSIVV [TLE6] | 2.63 ± 0.25 | 2.63 ± 0.077 |
| EVVNMAVIVPKEEGVISVSEDRTV [WDFY2] | 4.04 ± 0.42 | 4.22 ± 0.34 |
| DTGETSMLKRPVLLHLHQTAHADE [STEAP1] | 4.63 ± 0.078 | 4.88 ± 0.18 |
| MESRKDITNQEELWKMKPRRNLEE [STEAP1] | 4.91 ± 0.37 | 4.92 ± 0.34 |
| PKPADFRNPGPGRHRLITQVYLSH [INTS4] | 2.59 ± 0.17 | 2.57 ± 0.24 |
| EEIKTWGTVFQELNKLYPTHACRE [TPH1] | 2.95 ± 0.23 | 3.02 ± 0.28 |
| QGTAEEDHVDLSLSCTLVPRSGEQ [CDKN1A] | 5.19 ± 0.12 | 5.2 ± 0.28 |
| QPRKKYVQRKSDFDQTVFQEVFEP [NETO1] | 4.14 ± 0.22 | 4.26 ± 0.2 |
| NWGNGKRPNLETYYERVLKRKTFN [GDAP1] | 2.57 ± 0.12 | 2.79 ± 0.52 |
| HVEEHFQLLARRMQVDKKRVYLAT [FUT8] | 2.32 ± 0.14 | 2.29 ± 0.45 |
| CYDVYSPDKEEQLPFGPFNGTAWT [PKD2L1] | 2.75 ± 0.14 | 2.59 ± 0.12 |
| VDFLEPDSGTCPEVDEEGFTVRPD [FCHO1] | 5.45 ± 0.086 | 5.43 ± 0.1 |
| ALRKIIKTLAVKNEEIQSFIYSLK [FSD1] | 2.87 ± 0.45 | 2.89 ± 0.42 |
| MSLLHLGALYGITLIPTCKFYTWL [SCD] | 3.01 ± 0.57 | 3.74 ± 0.94 |
| GVIRMWADEGSRNSRFQMLFTSFQ [NETO1] | 2.34 ± 0.4 | 2.27 ± 0.28 |
| GPFDLMSRRVIAANNRILAERIAK [IMPA1] | 2.54 ± 0.39 | 3.46 ± 0.59 |
| PYKREEEALEERRLSRGEIPTLQR [PKD2L1] | 4.76 ± 0.31 | 4.82 ± 0.27 |
| DGIPQVYYFGPCGKYNAMVLELLG [CSNK1G3] | 2.31 ± 0.58 | 2.27 ± 0.43 |
| FTKETTQKNFNNLYGTKGNYTSRV [TRIM29] | 2.26 ± 0.42 | 2.61 ± 0.27 |
| TGTSNTTAIKSIEFARKGSCFLIN [RBBP5] | 2.42 ± 0.26 | 2.42 ± 0.22 |

| Sequence | protein stability index (treatment: DMSO) | protein stability index (treatment: MLN4924 1 uM, 8 h) |
| --- | --- | --- |
| HNYNILIATLRVALPSVMRFCCCV [MCOLN1] | 2.83 ± 0.59 | 2.9 ± 0.48 |
| MRKSGAMKKGGIFSAEFLKVFIPS [BNIP3L] | 2.38 ± 0.3 | 2.26 ± 0.21 |
| GHEEMVALLLGQGANINAQTEETQ [ANKRD17] | 4.81 ± 0.28 | 4.96 ± 0.19 |
| VQLIDDFKISGMNGIHVCMVFEVL [SRPK2] | 2.73 ± 0.62 | 2.71 ± 0.32 |
| KEAFDTIQEQKVVLEENGEKNQVQ [SASS6] | 5.49 ± 0.34 | 5.71 ± 0.11 |
| IRINPQSWFDNGSICMRMEILGCP [CPXM2] | 2.86 ± 0.53 | 2.68 ± 0.59 |
| APLSGPQALMLPPGSFWGLCQVAQ [VENTX] | 2.06 ± 0.28 | 2.27 ± 0.14 |
| GAVFNGITLLILAELLIFSVPIVY [RTN3] | 3.33 ± 0.037 | 2.9 ± 0.39 |
| IQYEMEYTEGISQRMRVPEKLKVA [MFF] | 2.98 ± 0.28 | 3.08 ± 0.64 |
| KLWNPRNFKAHVSPHEMLQAVVLC [USP39] | 2.63 ± 0.57 | 2.88 ± 0.47 |
| VVVKLLHPPSHWPLIKATVGLIRN [CTNNB1] | 2.48 ± 0.66 | 2.51 ± 0.64 |
| NSKPCISLNGPLSTSRHVMAPVMA [ADAMTS4] | 2.83 ± 0.39 | 3.12 ± 0.19 |
| THLENPTRYHLQQARRQQVKQYLS [TFE3] | 3.38 ± 0.17 | 3.64 ± 0.22 |
| NNEEQRSGLIYLTNHIAPHARNGL [IKZF1] | 3.34 ± 0.33 | 3.52 ± 0.2 |
| KTKVPSNDNSSDLLYDDLYDDDID [UBE2R2] | 5.28 ± 0.43 | 5.38 ± 0.36 |
| LTMNSEDERRDAEERASLAGNRNS [KCNK9] | 5.56 ± 0.082 | 5.5 ± 0.22 |
| VAPADVRRLLSYCKGRDHGVLDAL [ZSWIM9] | 2.46 ± 0.28 | 2.68 ± 0.46 |
| ANCIVHRDLKPENILVTSGGTVKL [CDK4] | 3.23 ± 0.15 | 3.5 ± 0.32 |
| GKKYNWSCDDLMGGGGLHSVGTYI [GFOD1] | 2.13 ± 0.35 | 2.33 ± 0.29 |
| SIYLVGGYSWSMGAYKSSTICYCP [KLHL14] | 2.87 ± 0.46 | 2.53 ± 0.87 |
| DLISKSFQGSQGRAYLFNSVVNVG [YPEL3] | 2.16 ± 0.22 | 2.11 ± 0.19 |
| LSLDNSPLLQSIHQLDFVQVKASS [TRIM9] | 2.73 ± 0.17 | 2.98 ± 0.42 |
| DEEVSSLTCDALTELLAKITNTDV [CCND2] | 4.04 ± 0.44 | 4.28 ± 0.078 |

| Sequence | protein stability index (treatment: DMSO) | protein stability index (treatment: MLN4924 1 uM, 8 h) |
| --- | --- | --- |
| KDPAYFYGYVYFRQVRDKTLKRGY [DENND6A] | 2.44 ± 0.31 | 1.96 ± 0.29 |
| YADFERFSKVLEEAAAAEEGLREL [DAPK3] | 2.46 ± 0.18 | – |
| MLRWLIGGGREPQGLAEKSPLQTI [WDR41] | 2.33 ± 0.21 | 2.33 ± 0.23 |
| DLERQNQEYQVLLDVRARLECEIN [KRT33B] | 3.39 ± 0.29 | 3.58 ± 0.22 |
| PRIWSLAHTATASAVEGAPPARPR [IRX6] | 4.44 ± 0.26 | 4.43 ± 0.11 |
| EESRFCDAHLVLDGEEIPVQKNIL [GAN] | 4.73 ± 0.22 | 4.68 ± 0.073 |
| QKDSYQPPGNVYWPLRGKREAMLE [SPAG8] | 3.58 ± 0.31 | 3.62 ± 0.41 |
| KLSPLRDRLVVTECQLTHSHPACP [ZSWIM9] | 3.56 ± 0.38 | 3.55 ± 0.27 |
| PKSLVRLSLEAVICFKEMLANSWN [KLHDC2] | 2.41 ± 0.65 | 2.49 ± 0.3 |
| ELHEECEGNHPSARKLTAQRRAST [NET1] | 4.92 ± 0.21 | 5.09 ± 0.15 |
| LAALCLAGPPAPARACQLPSEWRP [CCDC3] | 2.96 ± 0.2 | 2.92 ± 0.058 |
| VTLKYEIKKLIYVHLVIWLLLVAK [JAGN1] | 2.33 ± 0.52 | 2.27 ± 0.3 |
| GAVAPMDFTTAAEDQPINLCDKLP [NOL4L] | 4.7 ± 0.1 | 4.77 ± 0.34 |
| RGRTQLFSLNPRSGSLITAGRIDR [PCDHGA10] | 3.29 ± 0.13 | 3.31 ± 0.34 |
| FVKYLIRPQPWLEKEIEEATKKLG [FUT8] | 2.31 ± 0.29 | 2.47 ± 0.17 |
| VVKVISTIPATLLVDHVGSKTFLC [SLC2A12] | 2.95 ± 0.43 | 2.75 ± 0.37 |
| LKSSGLCESLTYGLPFILRPTSCW [M1AP] | 2.9 ± 0.31 | 3.06 ± 0.73 |
| VVAEAQTRVSQLGLQVEGLRRRLE [LRRC45] | 3.71 ± 0.4 | 3.82 ± 0.51 |
| PGLGQESKAPGSCDPGTDPCPEDA [TLE6] | 5.65 ± 0.27 | 5.55 ± 0.22 |
| DSRLMCSSVQKALFEEEDHVKKLQ [CCDC3] | 4.71 ± 0.16 | 4.74 ± 0.25 |
| ERERQPCGDGNTETHRAPDLVQWT [SOAT2] | 4.92 ± 0.06 | 4.65 ± 0.24 |
